According to patent publication US8710017B2, “Human and mouse targeting peptides identified by phage display” (priority 2000, dated 2014):
Ends that are not written are not given here.

What was measured:
[1] = target: T1, β3 integrin cytoplasmic domain (Homo sapiens, UniProt P05106); assay: Phage binding to immobilized GST-β3cyto
T1 construct: recombinant fusion proteins containing β3 or β5 cytoplasmic domains
T1 sequence (P05106 742-788 limits assumed): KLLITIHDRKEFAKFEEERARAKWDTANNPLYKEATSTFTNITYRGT
Procedure: FIG. 9. Binding of β3 cytoplasmic domain-selected phage to immobilized proteins. GST fusion proteins or GST alone were coated on microtiter wells at 10 μg/ml and used to bind phage expressing endostatin targeting peptides. […] The data represent the mean colony counts from triplicate wells, with standard error of less than 10% of the mean.
β3 and β5 cytoplasmic domain-binding peptides were isolated by screening multiple phage libraries with recombinant GST fusion proteins that contained either GST-β3cyto or GST-β5cyto coated onto microtiter wells. Immobilized GST was used as a negative control for enrichment during the panning of each cytoplasmic domain. Phage were sequenced from randomly selected clones after three rounds of panning as disclosed elsewhere (Koivunen et al., 1995; Pasqualini et al., 1995). Distinct sequences were isolated that interacted specifically with the β3 or with the β5 cytoplasmic domains (Table 9). Randomly selected clones from panning rounds II and III were sequenced. […] The ratios were calculated by dividing the number of colonies recovered from β3-GST-coated wells and those recovered from GST or BSA.
The specificity of the interaction with β3 or β5 cytoplasmic domains was determined by calculating the ratios between the number of phage bound to the cytoplasmic domain containing-fusion proteins (β3 or β5) versus GST alone (negative control). […]

GST-β5 integrin = target: T2, GST-β5 integrin (Homo sapiens, UniProt P18084); assay: Annexin V binding to GST-β5 cytoplasmic domain (ELISA), competition with VISY peptide
T2 construct: Plates were coated with GST fusion proteins of the cytoplasmic domains of various integrins and Annexin V was added to the plates
T2 sequence (P18084 743-799 limits assumed): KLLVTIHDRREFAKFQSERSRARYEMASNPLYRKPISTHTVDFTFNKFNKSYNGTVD
Procedure: (§1) Competitive binding assays were performed to examine the binding of Annexin V to β5 integrin and the effect of the VISY peptide. Plates were coated with GST fusion proteins of the cytoplasmic domains of various integrins and Annexin V was added to the plates. Binding of Annexin V was determined using anti-Annexin V antibodies. […] Calcium was used because Annexin V activity has been reported to be modulated by calcium. Binding of Annexin V to GST-β5 was blocked by addition of the VISY peptide (FIG. 20A).
A reciprocal study was performed, using Annexin V to coat plates and adding GST fusion proteins of integrin cytoplasmic domains. Binding was assessed using anti-GST fusion protein antibodies. […] In some studies, calcium ion appeared to interfere with the binding interaction between GST-β5 and Annexin V, with decreased binding observed in the presence of calcium (not shown).

GST-β1 integrin = GST-β1 integrin (Homo sapiens, UniProt P05556); assay: Annexin V binding to GST-β1 cytoplasmic domain (ELISA); settings: FIG. 20A
Procedure: as §1

GST-β3 integrin = target: T3, GST-β3 integrin (Homo sapiens, UniProt P05106); assay: Annexin V binding to GST-β3 cytoplasmic domain (ELISA); settings: FIG. 20A
T3 construct: recombinant fusion proteins containing β3 or β5 cytoplasmic domains
T3 sequence (P05106 742-788 limits assumed): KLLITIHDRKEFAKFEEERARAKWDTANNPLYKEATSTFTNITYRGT
Procedure: as §1

[2] = target: T4, β5 integrin cytoplasmic domain (Homo sapiens, UniProt P18084); assay: Binding of Fyn-phosphorylated phage to β5 cytoplasmic domain
T4 construct: the screenings involving the β5 cytoplasmic domain fusion protein
T4 sequence (P18084 743-799 limits assumed): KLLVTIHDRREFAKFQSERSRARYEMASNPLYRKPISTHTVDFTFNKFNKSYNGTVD
Procedure: Phosphorylation of peptide libraries with src family protein kinases (Fyn, c-Src, Lyn, and Syc) and serine/threonine kinases such as a MAP kinase were performed as described previously (Schmitz et al., 1996; Dente et al., 1997; Gram et al., 1997). Briefly, phage particles were collected from culture supernatants by double precipitation with 20% polyethylene glycol 8000 in 2.5 M NaCl. Particles were dissolved at 10^12 particles/ml. Purified phage (10 μl) were incubated for 3 hours at room temperature with different concentrations (35 to 3,500 units) of protein kinases in a reaction buffer volume of 50 μl. The reaction mixtures were transferred to tubes containing 10 μg of agarose-conjugated anti-P-Tyr, anti-P-Ser, or anti-P-Thr monoclonal antibodies to select phage displaying phosphorylated peptides. […] Phosphorylated peptides binding to β3 and β5 cytoplasmic domains were analyzed as described in the previous section.
Randomly selected clones from rounds III and IV were sequenced from a X4YX4 phosphorylated library with Fyn. […] The ratio of binding to β3 or β5 was calculated by dividing the number of β3 or β5 colonies by GST or BSA colonies found after panning. The ratio of binding to β3 or β5 with phosphorylated phage by Fyn versus unphosphorylated phage was calculated by dividing the number of colonies found after the panning. […]

HUVEC cells = assay: Apoptosis assay (propidium iodide staining, subdiploid population); assay type: cell-based, human; settings: 15 μM, 4 hours, FIG. 17
Procedure: FIG. 17. Penetratin peptide chimera binding to the β5 cytoplasmic domain induces programmed cell death. 10^6 HUVEC cells were harvested in complete media and 15 μM penetratin peptide chimeras were added to the cells.
Approximately 1×10^6 cells were harvested in complete media and 15 μM of peptide added for 4, 8, or 12 h. The cells were then washed in PBS and resuspended in 0.5 ml propidium iodide solution (50 μg/ml PI, 0.1% Triton X-100, 0.1% sodium citrate). After a 24-h incubation at 4° C., cells were counted with a XL Coulter (Coulter Corporation) with a 488-nm laser; 12,000 cells were counted for each histogram, and cell cycle distributions were analyzed with Multicycle program.
Approximately 1×10^6 cells were harvested in complete medium, and 15 μM of peptide was added for 4, 8, or 12 hours. The cells were then washed in PBS and resuspended in 0.5 ml propidium iodide solution (50 μg/ml PI, 0.1% Triton X-100, 0.1% sodium citrate). After a 24-h incubation at 4° C., the cells were counted with an XL Coulter (Coulter Corporation) with a 488 nm laser; 12,000 cells were counted for each histogram, and cell cycle distributions were analyzed with the Multicycle program.

HUVEC = assay: Apoptosis by chromatin fragmentation (agarose gel) in HUVEC; assay type: cell-based, human; settings: 15 μM, 2-4 hours, FIG. 21
Procedure: 10^6 HUVEC were treated with 15 μM of VISY antennapedia (penetratin) chimera or 15 μM of antennapedia peptide (pentratin) alone for 2-4 hours and chromatin fragmentation was analyzed by electrophoresis in an agarose gel.

mouse spleen cells = assay: In vitro binding of Fab phage clones to spleen cells by BRASIL; assay type: cell-based
Procedure: A singe cell suspension was prepared from two mouse spleens. The suspension was divided into five tubes and incubated on ice with 3×10^9 TU of Fab clones #2, #6, #10, #12 and 2×10^9 TU tet-phage. Phage bound to mouse spleen cells were recovered by BRASIL. 200 μl of log phase ER2537 E. coli was infected with the pellet and serial dilutions were plated on LB/carbenicillin and LB/tetracyclin plates for assessment of phage binding. Fd-tet was used as an internal control to normalize all the phage homing experiments.

mouse spleen = assay: In vivo spleen targeting of Fab phage clones by BRASIL; settings: 5 minutes circulation, FIG. 5

Sequence of GST-β1 integrin (P05556 752-798 limits assumed): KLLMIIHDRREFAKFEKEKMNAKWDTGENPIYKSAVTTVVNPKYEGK

Molecule: AGWLYMSWK
- β3/BSA Ratio ([1]; colonies from β3-GST-coated wells divided by those from BSA): 2.4
- β3/GST Ratio ([1]; colonies from β3-GST-coated wells divided by those from GST): 1.8

Molecule: Annexin V: 36 kDa endogenous protein analog of the VISY peptide, ligand of β5 integrin cytoplasmic domain
- binding of Annexin V to GST-β5 integrin (GST-β5 integrin; FIG. 20A): bound strongly
- binding of Annexin V to GST-β5 integrin (GST-β5 integrin; Tris-buffered saline (TBS)): Low binding
- binding of Annexin V to GST-β5 integrin (GST-β5 integrin; cytoplasmic buffer with or without added calcium (2 mM)): high binding
- binding of Annexin V to GST-β1 integrin (GST-β1 integrin): did not bind
- binding of Annexin V to GST-β3 integrin (GST-β3 integrin): did not bind

Molecule: TLRKYFHSS
- β3 or β5/GST ([2]; X4YX4 library phosphorylated with Fyn): 5.6

Molecule: TMLRYFMFP
- Phos/Unphos ([2]; phage phosphorylated by Fyn versus unphosphorylated phage): 4.2

Molecule: VISY-penetratin chimera: chimeric peptide containing VISY peptide (VVISYSMPD) linked to penetratin (antennapedia), plus a biotin moiety (VVISYSMPDRQIKIWFQNRRMKWKK; also: plus a biotin moiety, site not given here)
- induction of apoptosis (PI staining) (HUVEC cells): induction of apoptosis
- induction of apoptosis (chromatin fragmentation) (HUVEC): induction of apoptosis

B1: Fab clone #6: chicken Fab phage clone from α-spleen library, localized in mouse spleen (protein)
scFv: CQPAMAAVTLDESGGGLQTPGGTLSLVCKASGISIGYGMNWVRQAPGKGLEYVASISGDGNFAHYGAPVKGRATISRDDGQNTVTLQLNNLR
modifications: Fab format
- binding to mouse spleen cells compared to Fd-tet insertless control phage (mouse spleen cells; FIG. 3): lowest degree of differential binding
- binding to mouse spleen cells, direct comparison with NPC-3TT (mouse spleen cells; FIG. 4): only slightly higher than the binding of phage NPC-3TT
- binding to spleen compared to Fd-tet phage (mouse spleen): many-fold increased binding to spleen
